Tests used:
c-Abl (mouse) = assay: phosphorylation enrichment, bacterial display (enrichment ratio); higher = better substrate or ligand; peptides without Tyr show the background
EPHB2 = EPHB2 (UniProt P29323); assay: as above
Fes = Fes (UniProt P07332); assay: as above
FGFR3 = FGFR3 (UniProt P22607); assay: as above
c-Src = assay: as above
AncSZ = assay: as above
Fyn = Fyn (UniProt P06241); assay: as above
Fer (mouse) = assay: as above
FGFR1 = FGFR1 (UniProt P11362); assay: as above
Jak2 = Jak2 (UniProt O60674); assay: as above
Hck = Hck (UniProt P08631); assay: as above
EPHB1 = EPHB1 (UniProt P54762); assay: as above
MERTK = MERTK (UniProt Q12866); assay: as above
SHP2-C SH2 = assay: SH2 binding enrichment of the phosphorylated peptide, bacterial display (enrichment ratio); higher = better substrate or ligand; peptides without Tyr show the background
c-Src SH2 = assay: as above
Grb2 SH2 = Grb2 SH2 (UniProt P62993); assay: as above
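Wherever SH2 binding enrichment of the phosphorylated peptide, bacterial display is given: peptide library displayed on the E. coli surface as eCPX fusions, selected cells deep-sequenced, score is each peptide's frequency after selection divided by its frequency in the input.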
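Wherever phosphorylation enrichment, bacterial display is given: 11-residue human phosphosite peptides and single-mutation variants displayed on the E. coli surface, counted by deep sequencing, each peptide's frequency after selection divided by its frequency in the unselected input library; frequency after pTyr selection over input frequency; kinase dosed for 20-30% of maximal phosphorylation in three min.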

Sequence of FGFR1 (P11362 whole entry, looked up): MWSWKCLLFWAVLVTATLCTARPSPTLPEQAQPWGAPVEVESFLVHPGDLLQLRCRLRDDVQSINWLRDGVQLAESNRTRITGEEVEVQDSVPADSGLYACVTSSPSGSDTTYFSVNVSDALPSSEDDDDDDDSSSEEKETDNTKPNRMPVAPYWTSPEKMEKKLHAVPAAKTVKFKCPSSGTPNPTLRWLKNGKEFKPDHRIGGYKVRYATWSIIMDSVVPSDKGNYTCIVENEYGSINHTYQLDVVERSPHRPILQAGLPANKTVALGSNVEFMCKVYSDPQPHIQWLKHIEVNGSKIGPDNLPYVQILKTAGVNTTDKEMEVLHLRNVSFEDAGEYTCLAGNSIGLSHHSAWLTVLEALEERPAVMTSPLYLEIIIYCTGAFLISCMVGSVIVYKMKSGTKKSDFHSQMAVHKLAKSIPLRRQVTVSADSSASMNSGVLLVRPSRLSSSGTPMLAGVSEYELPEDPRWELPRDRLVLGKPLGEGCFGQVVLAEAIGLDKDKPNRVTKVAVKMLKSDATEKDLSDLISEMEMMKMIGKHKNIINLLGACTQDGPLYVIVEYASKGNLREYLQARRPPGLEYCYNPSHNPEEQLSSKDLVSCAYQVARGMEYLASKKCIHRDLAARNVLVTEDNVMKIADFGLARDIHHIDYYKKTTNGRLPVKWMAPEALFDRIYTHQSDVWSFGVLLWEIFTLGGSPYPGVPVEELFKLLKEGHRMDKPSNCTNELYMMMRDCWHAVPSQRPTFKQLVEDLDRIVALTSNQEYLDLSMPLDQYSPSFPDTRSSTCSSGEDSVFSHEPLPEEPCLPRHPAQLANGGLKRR
Sequence of EPHB2 (P29323 whole entry, looked up): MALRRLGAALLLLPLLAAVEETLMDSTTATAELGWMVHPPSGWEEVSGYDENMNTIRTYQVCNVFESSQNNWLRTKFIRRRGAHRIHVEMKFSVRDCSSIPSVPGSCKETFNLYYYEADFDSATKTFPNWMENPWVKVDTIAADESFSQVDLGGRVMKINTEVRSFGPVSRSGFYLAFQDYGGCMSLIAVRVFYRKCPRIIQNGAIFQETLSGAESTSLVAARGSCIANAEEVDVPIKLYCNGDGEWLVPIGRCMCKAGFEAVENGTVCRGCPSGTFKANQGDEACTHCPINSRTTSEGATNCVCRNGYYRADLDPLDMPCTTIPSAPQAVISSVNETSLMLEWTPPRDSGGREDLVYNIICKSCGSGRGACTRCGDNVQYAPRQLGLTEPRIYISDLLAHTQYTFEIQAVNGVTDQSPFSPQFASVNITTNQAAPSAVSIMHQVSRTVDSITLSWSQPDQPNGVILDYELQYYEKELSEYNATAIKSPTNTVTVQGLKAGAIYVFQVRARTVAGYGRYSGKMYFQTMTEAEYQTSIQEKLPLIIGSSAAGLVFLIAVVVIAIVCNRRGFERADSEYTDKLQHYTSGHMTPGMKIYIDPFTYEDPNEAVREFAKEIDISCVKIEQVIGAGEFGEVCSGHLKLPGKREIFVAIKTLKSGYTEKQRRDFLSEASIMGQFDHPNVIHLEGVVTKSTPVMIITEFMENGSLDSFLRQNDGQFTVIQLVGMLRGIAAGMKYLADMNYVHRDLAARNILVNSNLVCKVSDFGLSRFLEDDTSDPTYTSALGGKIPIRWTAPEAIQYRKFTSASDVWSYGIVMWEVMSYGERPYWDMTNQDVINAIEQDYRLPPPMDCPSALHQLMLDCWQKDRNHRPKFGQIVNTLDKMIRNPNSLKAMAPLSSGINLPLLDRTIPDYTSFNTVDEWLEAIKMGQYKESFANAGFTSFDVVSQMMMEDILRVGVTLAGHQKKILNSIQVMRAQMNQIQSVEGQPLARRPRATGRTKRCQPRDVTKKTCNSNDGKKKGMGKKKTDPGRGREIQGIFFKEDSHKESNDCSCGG
Sequence of Grb2 SH2 (P62993 whole entry, looked up, the tested form may be a part): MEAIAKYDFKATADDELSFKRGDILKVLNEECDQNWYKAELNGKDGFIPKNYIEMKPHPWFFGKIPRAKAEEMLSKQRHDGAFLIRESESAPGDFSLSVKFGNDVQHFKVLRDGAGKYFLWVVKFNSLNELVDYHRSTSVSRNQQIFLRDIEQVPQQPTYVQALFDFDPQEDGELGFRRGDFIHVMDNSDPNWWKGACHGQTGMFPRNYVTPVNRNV
Sequence of FGFR3 (P22607 whole entry, looked up): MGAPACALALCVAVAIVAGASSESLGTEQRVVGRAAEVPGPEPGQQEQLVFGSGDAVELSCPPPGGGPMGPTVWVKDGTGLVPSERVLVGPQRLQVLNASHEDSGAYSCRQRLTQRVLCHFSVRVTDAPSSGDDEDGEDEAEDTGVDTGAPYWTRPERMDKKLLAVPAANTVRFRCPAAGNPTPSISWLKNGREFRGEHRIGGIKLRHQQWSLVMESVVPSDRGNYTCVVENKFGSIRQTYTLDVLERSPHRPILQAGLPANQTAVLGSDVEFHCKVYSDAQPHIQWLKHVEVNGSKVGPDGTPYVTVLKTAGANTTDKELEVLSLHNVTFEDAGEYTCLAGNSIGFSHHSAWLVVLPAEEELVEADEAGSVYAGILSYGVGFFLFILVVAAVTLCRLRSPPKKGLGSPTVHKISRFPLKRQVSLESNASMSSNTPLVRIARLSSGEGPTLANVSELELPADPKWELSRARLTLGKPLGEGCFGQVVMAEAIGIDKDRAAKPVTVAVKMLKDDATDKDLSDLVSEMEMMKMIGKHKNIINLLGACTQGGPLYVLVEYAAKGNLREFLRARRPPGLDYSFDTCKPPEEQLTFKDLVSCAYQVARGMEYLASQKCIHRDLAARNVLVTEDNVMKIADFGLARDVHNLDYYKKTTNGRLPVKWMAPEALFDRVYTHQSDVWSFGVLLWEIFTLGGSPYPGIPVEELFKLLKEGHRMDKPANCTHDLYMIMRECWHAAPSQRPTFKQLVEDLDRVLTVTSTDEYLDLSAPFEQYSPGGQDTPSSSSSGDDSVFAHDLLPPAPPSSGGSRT
Sequence of MERTK (Q12866 whole entry, looked up): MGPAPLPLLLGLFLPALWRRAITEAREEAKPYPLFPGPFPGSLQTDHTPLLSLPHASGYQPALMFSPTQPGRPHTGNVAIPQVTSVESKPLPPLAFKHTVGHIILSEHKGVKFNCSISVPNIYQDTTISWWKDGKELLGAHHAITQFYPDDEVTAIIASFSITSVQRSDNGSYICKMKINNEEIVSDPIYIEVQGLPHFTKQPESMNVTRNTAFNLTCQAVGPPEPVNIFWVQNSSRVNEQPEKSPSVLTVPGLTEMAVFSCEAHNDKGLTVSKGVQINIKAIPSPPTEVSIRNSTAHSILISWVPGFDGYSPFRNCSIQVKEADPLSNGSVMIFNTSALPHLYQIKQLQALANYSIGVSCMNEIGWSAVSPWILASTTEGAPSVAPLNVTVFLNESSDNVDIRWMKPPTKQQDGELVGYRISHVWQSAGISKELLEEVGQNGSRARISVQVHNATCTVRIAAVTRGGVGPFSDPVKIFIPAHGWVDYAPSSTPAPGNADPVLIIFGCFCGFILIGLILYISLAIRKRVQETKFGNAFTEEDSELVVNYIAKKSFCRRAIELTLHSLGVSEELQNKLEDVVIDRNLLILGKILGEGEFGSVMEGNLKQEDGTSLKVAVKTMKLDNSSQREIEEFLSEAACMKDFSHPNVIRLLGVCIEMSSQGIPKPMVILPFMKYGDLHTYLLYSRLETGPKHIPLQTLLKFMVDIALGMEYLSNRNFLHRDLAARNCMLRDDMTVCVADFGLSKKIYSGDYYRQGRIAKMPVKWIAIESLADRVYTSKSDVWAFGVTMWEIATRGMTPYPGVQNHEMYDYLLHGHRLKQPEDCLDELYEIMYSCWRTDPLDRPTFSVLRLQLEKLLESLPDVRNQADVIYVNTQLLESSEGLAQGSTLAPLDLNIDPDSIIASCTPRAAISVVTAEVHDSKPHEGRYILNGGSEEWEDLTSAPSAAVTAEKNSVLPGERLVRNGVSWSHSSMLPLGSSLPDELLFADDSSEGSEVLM
Sequence of EPHB1 (P54762 whole entry, looked up): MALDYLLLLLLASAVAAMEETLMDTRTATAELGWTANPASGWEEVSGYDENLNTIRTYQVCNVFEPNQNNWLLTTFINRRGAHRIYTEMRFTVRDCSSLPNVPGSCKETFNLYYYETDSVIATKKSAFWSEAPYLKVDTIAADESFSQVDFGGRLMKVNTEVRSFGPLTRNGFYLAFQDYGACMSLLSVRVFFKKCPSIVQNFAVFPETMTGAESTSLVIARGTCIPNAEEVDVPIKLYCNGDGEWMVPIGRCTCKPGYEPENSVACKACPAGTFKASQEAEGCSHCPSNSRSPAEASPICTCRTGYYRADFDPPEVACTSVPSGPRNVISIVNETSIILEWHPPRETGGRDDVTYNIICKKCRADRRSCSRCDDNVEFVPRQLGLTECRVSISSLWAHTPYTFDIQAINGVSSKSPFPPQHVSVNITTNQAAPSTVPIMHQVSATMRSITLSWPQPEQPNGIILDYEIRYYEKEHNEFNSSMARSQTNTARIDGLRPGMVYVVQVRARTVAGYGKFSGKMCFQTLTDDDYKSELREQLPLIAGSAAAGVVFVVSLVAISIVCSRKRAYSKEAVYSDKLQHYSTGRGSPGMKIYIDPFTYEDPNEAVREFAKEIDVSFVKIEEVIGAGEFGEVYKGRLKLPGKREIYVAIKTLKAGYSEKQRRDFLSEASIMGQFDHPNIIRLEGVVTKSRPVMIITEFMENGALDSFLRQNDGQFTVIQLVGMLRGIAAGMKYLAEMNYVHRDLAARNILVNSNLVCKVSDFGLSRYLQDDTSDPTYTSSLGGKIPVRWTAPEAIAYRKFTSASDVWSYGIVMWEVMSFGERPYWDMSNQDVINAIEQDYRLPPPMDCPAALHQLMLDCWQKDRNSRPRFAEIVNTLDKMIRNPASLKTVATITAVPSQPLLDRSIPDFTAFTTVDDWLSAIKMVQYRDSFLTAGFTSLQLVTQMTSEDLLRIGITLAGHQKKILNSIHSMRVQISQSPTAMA

Sequence | phosphorylation enrichment (c-Abl (mouse)) | phosphorylation enrichment (EPHB2) | phosphorylation enrichment (Fes) | phosphorylation enrichment (FGFR3) | phosphorylation enrichment (c-Src) | phosphorylation enrichment (AncSZ) | phosphorylation enrichment (Fyn) | phosphorylation enrichment (Fer (mouse)) | phosphorylation enrichment (FGFR1) | phosphorylation enrichment (Jak2) | phosphorylation enrichment (Hck) | phosphorylation enrichment (EPHB1) | phosphorylation enrichment (MERTK) | SH2 binding enrichment (SHP2-C SH2) | SH2 binding enrichment (c-Src SH2) | SH2 binding enrichment (Grb2 SH2)
KFANSYIMEPL [TCTE3_Y87_R88I] | 0.436 | 0.531 | 0.606 | 0.629 | 0.712 | 0.853 | 0.529 | 0.498 | 0.524 | 0.476 | 0.432 | 0.39 | 0.37 | 0.715 | 0.583 | 0.91
KFDLMYAKRAF [TUBA1A_Y399] | 0.544 | 0.536 | 0.921 | 0.589 | 0.409 | 0.905 | 0.434 | 0.442 | 0.465 | 0.667 | 0.463 | 0.535 | 0.414 | 0.548 | 0.444 | 0.802
KFLENYFDLEK [MMP3_Y41_K45E_YF] | 0.844 | 0.878 | 1.23 | 2.14 | 0.502 | 1.39 | 0.467 | 0.439 | 3.77 | 1.39 | 0.487 | 2.5 | 0.46 | 1.06 | 0.741 | 0.991
KGEDFYCVTCH [FHL1_Y149] | 0.675 | 0.569 | 1.12 | 0.775 | 0.613 | 1.09 | 0.797 | 0.504 | 0.579 | 0.933 | 0.801 | 0.696 | 0.597 | 0.842 | 0.962 | 1.19
KGRGEYFAIKA [PRKCD_Y374] | 0.769 | 0.905 | 0.666 | 2.67 | 0.47 | 0.702 | 0.426 | 0.451 | 4.32 | 0.702 | 0.614 | 0.943 | 0.381 | 1.29 | 1.22 | 1.2
KGRGEYSAIKA [PRKCD_Y374_F375S] | 0.761 | 0.366 | 0.864 | 0.443 | 0.625 | 0.553 | 0.412 | 0.45 | 0.393 | 0.636 | 0.811 | 0.434 | 0.603 | 0.933 | 1.81 | 0.974
KHMADYPDCKF [SOX11_Y113_Y116C_YF] | 0.703 | 0.556 | 1.04 | 0.74 | 0.397 | 0.92 | 0.423 | 0.495 | 0.587 | 0.879 | 0.475 | 0.532 | 0.456 | 0.859 | 0.573 | 1.18
KHVMPYAANKN [GRIN2A_Y1431_E1426K] | 0.484 | 0.43 | 0.511 | 0.387 | 0.36 | 0.547 | 0.345 | 0.374 | 0.401 | 0.443 | 0.332 | 0.301 | 0.383 | 1.2 | 0.92 | 1.03
KIITDYYVDMK [MPP4_Y566_V562I] | 0.677 | 0.718 | 0.941 | 2.6 | 0.517 | 1.09 | 0.55 | 0.482 | 4.12 | 1.22 | 0.449 | 1.56 | 0.547 | 0.82 | 3.04 | 0.861
KILAKYSLETS [NAMPT_Y175_L176S] | 0.476 | 0.409 | 0.58 | 0.456 | 0.301 | 0.537 | 0.354 | 0.377 | 0.442 | 0.503 | 0.437 | 0.335 | 0.256 | 0.529 | 0.388 | 0.871
KILGTYFETGS [PAX2_Y72_R71T_YF] | 0.668 | 0.47 | 0.867 | 0.793 | 0.585 | 0.833 | 0.577 | 0.467 | 0.814 | 0.717 | 0.485 | 0.491 | 0.5 | 0.982 | 0.638 | 0.848
KITVIYDGACQ [VWDE_Y1035] | 0.837 | 0.664 | 1.28 | 0.778 | 0.721 | 1.1 | 0.51 | 0.574 | 0.438 | 1.14 | 0.711 | 0.599 | 0.437 | 0.486 | 0.479 | 0.697
KLFYIYTPGTT [SLC27A4_Y245_S247P] | 0.784 | 0.584 | 1.17 | 0.899 | 0.58 | 1.25 | 0.404 | 0.594 | 0.753 | 1.43 | 0.527 | 0.666 | 1.66 | 1.15 | 0.471 | 0.798
KLIMECLPYGS [JAK2_Y931_Y931C] | 0.738 | 0.649 | 0.998 | 0.766 | 0.424 | 0.907 | 0.513 | 0.448 | 0.542 | 0.886 | 0.512 | 0.564 | 0.489 | 0.606 | 0.451 | 0.767
KLKNAYEECLE [MYH7_Y1488_S1491C] | 0.799 | 0.554 | 1.16 | 0.739 | 0.502 | 1.15 | 0.438 | 0.615 | 0.508 | 0.984 | 0.642 | 0.501 | 0.432 | 0.755 | 2.71 | 1.08
KLNNEHLELNF [MME_Y497_Y497H_YF] | 0.805 | 0.466 | 0.921 | 0.662 | 0.454 | 0.88 | 0.453 | 0.423 | 0.462 | 0.813 | 0.464 | 0.514 | 0.405 | 0.542 | 0.419 | 0.783
KLRMEYLSLMH [NCKIPSD_Y660] | 0.8 | 0.609 | 0.991 | 0.737 | 0.445 | 0.857 | 0.438 | 0.455 | 0.52 | 0.976 | 0.515 | 0.524 | 0.419 | 1.97 | 1.44 | 2.08

Sequence | phosphorylation enrichment (c-Abl (mouse)) | phosphorylation enrichment (EPHB2) | phosphorylation enrichment (Fes) | phosphorylation enrichment (FGFR3) | phosphorylation enrichment (c-Src) | phosphorylation enrichment (AncSZ) | phosphorylation enrichment (Fyn) | phosphorylation enrichment (Fer (mouse)) | phosphorylation enrichment (FGFR1) | phosphorylation enrichment (Jak2) | phosphorylation enrichment (Hck) | phosphorylation enrichment (EPHB1) | phosphorylation enrichment (MERTK) | SH2 binding enrichment (SHP2-C SH2) | SH2 binding enrichment (c-Src SH2) | SH2 binding enrichment (Grb2 SH2)
KLVQLYVVCTK [BTK_Y461_G462V] | 0.928 | 0.523 | 1.16 | 0.785 | 0.486 | 1.3 | 0.416 | 0.584 | 0.565 | 1.2 | 0.528 | 0.809 | 0.45 | 1.01 | 0.482 | 0.881
KMLEKYKEQLN [TLK2_Y259_R262Q] | 0.51 | 0.598 | 0.864 | 0.56 | 0.336 | 0.721 | 0.503 | 0.539 | 0.604 | 0.507 | 0.53 | 0.585 | 0.393 | 0.619 | 0.426 | 1.01
KNAEKYAEEDR [HSPA9_Y568] | 0.674 | 0.506 | 1.1 | 0.709 | 0.411 | 1.08 | 0.528 | 0.499 | 0.47 | 0.822 | 0.571 | 0.506 | 0.444 | 0.819 | 0.624 | 0.992
KNCFKYFMSDD [ATRX_Y203_YF] | 1.02 | 0.714 | 1.45 | 0.84 | 0.646 | 1.37 | 0.453 | 0.589 | 0.604 | 1.27 | 0.556 | 0.639 | 0.556 | 0.529 | 0.546 | 0.803
KNEIFYQCPDQ [FBXO3_Y223_V221I] | 6.62 | 1.07 | 1.36 | 1.02 | 0.744 | 2.23 | 0.748 | 4.5 | 0.928 | 1.07 | 0.998 | 0.688 | 2.55 | 0.676 | 0.746 | 0.774
KPLMPSMRFSR [SMARCE1_Y73_Y73S_YF] | 0.737 | 0.399 | 0.876 | 0.463 | 0.543 | 0.828 | 0.424 | 0.35 | 0.396 | 0.685 | 0.413 | 0.392 | 0.459 | 0.675 | 0.569 | 0.831
KPSLKYVTFGN [GALNTL5_Y404_G401S_YF] | 0.467 | 0.453 | 0.75 | 0.569 | 0.504 | 0.736 | 0.515 | 0.461 | 0.396 | 0.496 | 0.488 | 0.453 | 0.435 | 0.697 | 0.575 | 0.68
KQCSDYARELE [MYH3_Y1140_R1137C] | 0.929 | 0.605 | 1.26 | 0.769 | 0.514 | 1.23 | 0.552 | 0.578 | 0.654 | 1.19 | 0.571 | 0.597 | 0.557 | 0.704 | 0.619 | 1.02
KQQEIYQEVTQ [CD209_Y239_L242V] | 1.94 | 4.5 | 0.942 | 1.96 | 5.15 | 1.26 | 5.17 | 7.32 | 2.56 | 0.765 | 5.41 | 7.2 | 4.06 | 0.785 | 0.513 | 0.929
KRAAIYNPVIY [RHO_Y301_S297R] | 0.469 | 0.415 | 0.556 | 0.443 | 2.67 | 0.547 | 2.33 | 5.24 | 0.577 | 0.424 | 4.27 | 0.398 | 1.06 | 0.645 | 0.629 | 0.968
KRAIGHFSATS [FAM120A_Y327_Y327H_YF] | 0.402 | 0.332 | 0.42 | 0.39 | 0.387 | 0.423 | 0.351 | 0.338 | 0.335 | 0.456 | 0.397 | 0.407 | 0.371 | 0.66 | 0.525 | 0.852
KRIKLYNQEND [RPGRIP1L_Y448] | 0.612 | 0.387 | 0.681 | 0.459 | 0.353 | 0.643 | 0.377 | 0.388 | 0.412 | 0.502 | 0.379 | 0.306 | 0.439 | 0.673 | 0.489 | 0.856
KRRGPYETSPS [PLPP7_Y172] | 0.526 | 0.403 | 0.495 | 0.397 | 0.614 | 0.599 | 0.491 | 0.446 | 0.414 | 0.539 | 0.399 | 0.345 | 0.405 | 0.377 | 0.493 | 0.549
KRTFEYEADKN [DENND2B_Y396] | 0.61 | 0.526 | 1.03 | 0.576 | 0.39 | 0.947 | 0.471 | 0.496 | 0.507 | 0.781 | 0.483 | 0.545 | 0.403 | 0.702 | 0.576 | 0.747
KSEMSCIDGEK [SORBS1_Y485_Y485C] | 0.793 | 0.567 | 1.06 | 0.686 | 0.423 | 0.862 | 0.431 | 0.44 | 0.522 | 0.658 | 0.447 | 0.491 | 0.406 | 0.855 | 0.585 | 1.03
KSLFHHRQFSA [CPS1_Y1491_Y1491H_YF] | 0.431 | 0.295 | 0.543 | 0.373 | 0.279 | 0.448 | 0.403 | 0.297 | 0.353 | 0.407 | 0.297 | 0.418 | 0.36 | 0.92 | 0.521 | 0.843

— the supplement of paper PMC10065799, “High-throughput profiling of sequence recognition by tyrosine kinases and SH2 domains using bacterial peptide display” (eLife, 2023)
